Reference: patent US7749968B2, “Peptides for targeting the prostate specific membrane antigen” (The Johns Hopkins University, priority 2002, dated 2010)

What was measured:
[1] = target: T1, xPSM (Homo sapiens, UniProt Q04609); assay: Final phage display round on xPSM bound to microtiter plates; type: binding
T1 construct: Purified human xPSM (the extracellular portion of human PSMA); S-tag (cleaved yes); made in house; host or cells: Sf-9 insect cells infected with recombinant baculovirus; released from S-protein agarose by enterokinase
Text: In addition to phage library partitioning by cell binding, a final round of binding was completed on xPSM (Tag-xPSM digested with enterokinase) bound to plastic microtiter plates. This final round was used to ensure that those peptides identified in the LNCaP screen were targeting PSMA and not another unknown surface protein.
Multiple individual phage from rounds three of LNCaP binding and the final round of xPSM binding were isolated, amplified, and sequenced. […] Two sequences are highly represented and are found in both cell and purified protein backgrounds.

[2] = target: T2, Tag-xPSM (Homo sapiens, UniProt Q04609); assay: Tag-xPSM phage display selection (agarose/cellulose), sequencing of selected phage; type: binding
T2 construct: made in house; host or cells: Sf-9 insect cells infected with recombinant baculovirus; protein harvested from the media
Procedure: 100 μl of S-protein agarose (2× in RPMI 1640+1% Fetal Bovine Serum (FBS) and 100 μl of CBind Resin (10 mg/ml in RPMI 1640+1% FBS) without fusion protein were used to negatively select the original phage display library. 2×10^11 plaque forming units (PFU) of 1.29×10^9 different sequence phage were incubated with each aliquot of resin for 1 hr at 37° C., while rotating. The S-tag agarose was pelleted and supernatant saved as the agarose counter-selected pool. The cellulose resin was transferred onto 200 μl of 9:1 dibutyl phthalate:cyclohexane and the resin pelleted through the organic phase. The aqueous supernatant was saved as the cellulose counter-selected pool. Each counter selected pool was then added to tag-xPSM agarose or cellulose resin and incubated for 1 hr at 37° C., while rotating. The tag-xPSM agarose was pelleted and washed three times in RPMI 1640+1% FBS. The agarose pellet was then saved for phage isolation. The Tag-xPSM cellulose was transferred onto 200 μl of 9:1 dibutyl phthalate:cyclohexane and the resin pelleted through the organic phase. The tube was then snap frozen in liquid nitrogen to isolate the resin pellet. Over 75% of Tag-xPSM remained bound to the cellulose resin through these conditions. The resulting phage-bound tag-xPSM agarose and tag-xPSM cellulose were then resuspended in 200 μl of log phage ER2738 cells and phage allowed to infect 1 hour at room temperature. A small aliquot was taken at this time to quantitate the number of phage bound per round of selection. The remaining PSMA bound phage was then amplified, tittered, and applied to the next round of phage display. There was only one counter-selection round, followed by a total of five positive selection rounds, applying between 10^10 to 10^11 PFU per round. The final round of selection included cross-selections, where selected phage pools from one PSMA background where applied to the other. Individual phage were isolated and sequenced from rounds three through five.
Individual phage plaques were amplified for 5 hours in ER2738 cells at 37° C. Amplified supernatant was incubated 1:1 with PEG/NaCl buffer (20% PEG 8000, 2.5 M NaCl) for 10 minutes at room temperature. Phage were microfuged 10 minutes at 20,000 g, 4° C. The phage pellet was suspended in 100 μl Iodide buffer (10 mM Tris-HCl, pH 8.0, 1 mM EDTA, 4M NaI). Single stranded DNA (ssDNA) was precipitated with 250 μl of 100% ethanol, pelleted, and washed in 70% ethanol. Each ssDNA pellet was suspended in 30 μl 10 mM Tris, pH 7.4. Each phage was sequenced using the Amersham DYE ET mix, by incubating 6 μl ssDNA, 1 μl of 5 μM-96 pill Sequencing Primer ([…]; SEQ ID NO:108), and 8 μl of DYE ET mix in a 96 well PCR plate and amplified by 30 cycles of 95° C. for 20 seconds, 50° C. for 15 seconds, and 60° C. for 1 minute. Sequencing reaction products were spun through G50-fine Sephadex column plates, prepared on Millipore-multiscreen plates. Products were sequenced and analyzed on the MegaBACE capillary sequencer. All sequences, minus the flanking cysteines, were aligned using the Baylor College of Medicine Clustal W1.8 Global Progressive Alignment (available online) with data presented by Boxshade 3.21 software (available online through the Swiss Institute for Bioinformatics).
2×10^11 plaque-forming units (PFU) of the library was incubated with each aliquot of resin for one hour at 37° C., while rotating. The S-tag agarose was pelleted and the supernatant saved as the agarose counter-selected pool. The cellulose resin was transferred onto a 9:1 ratio of dibutyl phthalate:cyclohexane and the resin centrifuged through the organic phase. The aqueous supernatant was saved as the cellulose counter-selected pool. Each counter selected pool was then added to tag-xPSM agarose or cellulose resin, respectively, and incubated for one hour at 37° C., while rotating (see FIG. 2). The Tag-xPSM agarose was pelleted, washed, and saved for phage isolation. […]

[3] = target: T1, xPSM; assay: NAAG hydrolysis (NAALADase) assay with purified xPSM; type: biochemical; conditions: 1, 10 and 100 micromolar; 30 nM NAAG substrate, 37° C., 10 minutes
Text: In another embodiment, the peptide compounds of the invention specifically enhance the enzymatic activity of PSMA. In another embodiment, peptide compounds of the invention may inhibit PSMA activity. Accordingly, the invention provides a method for assaying peptide compounds for the ability to modulate the activity of PSMA. This method is described in detail in Robinson, M. B. et al. (1987) J. Biol. Chem. 262:14498-506, incorporated herein by reference, as well as in Example 6 herein. Purified human xPSM (the extracellular portion of human PSMA) is incubated with a radiolabeled substrate, N-acetyl-L-aspartyl-L-[3,4-^3H]glutamate, plus the peptide compound being tested. Hydrolyzed substrate is then separated from intact substrate (e.g., by anion exchange chromatography) and quantitated to determine whether the test peptide compound was able to modulate PSMA activity.
N-acetyl-aspartyl-glutamate (NAAG) hydrolysis was performed essentially as previously described (Robinson, M. B. et al. (1987) J. Biol. Chem. 262:14498-506, incorporated herein by reference). In short, 65 ng purified xPSM was resuspended in NAALADase Buffer (50 mM Tris, pH 7.4, 0.5% Triton X-100) and incubated in the presence of peptides or inhibitors (1, 10, and 100 micromolar), along with the radiolabeled substrate N-acetyl-L-aspartyl-L-[3,4-^3H]glutamate (NEN Life Science Products, Boston, Mass.) at 30 nM. Reactions were run at 37° C. for 10 minutes. The reaction was then stopped by the addition of an equal volume of ice-cold 100 mM sodium phosphate, 2 mM EDTA. Products were separated from intact substrate using AG 1-X8 Formate resin (BioRad Laboratories, Hercules, Calif.) anion exchange chromatography. The reaction product, tritiated-glutamate, was eluted with 1M sodium formate and quantitated by scintillation counting. Intact NAAG remained in the column resin. Experiments were completed in triplicate and have been repeated. The data represents six data points from two experiments. Experiments were designed to allow 20% or less of the total substrate to be cleaved.

T1 sequence (Q04609 44-750 limits assumed): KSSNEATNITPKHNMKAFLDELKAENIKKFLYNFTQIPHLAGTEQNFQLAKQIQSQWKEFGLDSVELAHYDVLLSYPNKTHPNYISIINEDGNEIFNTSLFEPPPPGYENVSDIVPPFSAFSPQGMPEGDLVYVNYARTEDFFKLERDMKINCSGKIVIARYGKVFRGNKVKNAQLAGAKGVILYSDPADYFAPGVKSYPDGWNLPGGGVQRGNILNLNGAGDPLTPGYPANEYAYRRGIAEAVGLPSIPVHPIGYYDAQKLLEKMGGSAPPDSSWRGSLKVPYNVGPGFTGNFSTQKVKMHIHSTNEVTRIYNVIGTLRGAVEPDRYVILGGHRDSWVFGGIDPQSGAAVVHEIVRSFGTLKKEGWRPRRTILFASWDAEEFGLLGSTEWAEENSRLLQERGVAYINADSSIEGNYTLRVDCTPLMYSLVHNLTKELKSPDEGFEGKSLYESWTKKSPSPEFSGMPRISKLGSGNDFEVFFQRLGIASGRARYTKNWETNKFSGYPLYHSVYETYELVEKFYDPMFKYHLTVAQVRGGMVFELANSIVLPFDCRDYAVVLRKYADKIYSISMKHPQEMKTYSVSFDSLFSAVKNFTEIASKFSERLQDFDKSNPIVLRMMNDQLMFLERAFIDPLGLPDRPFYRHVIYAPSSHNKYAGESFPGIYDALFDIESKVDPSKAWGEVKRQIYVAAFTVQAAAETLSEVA
T2 sequence (Q04609 44-750 limits assumed): as above

Row | Number of times sequence was found, Round 1 xPSM [1] | Number of times sequence was found, Round 3 ([2]; Agarose) | Number of times sequence was found, Round 4 ([2]; Agarose) | Number of times sequence was found, Round 5 ([2]; Agarose) | Number of times sequence was found, Round 3 ([2]; Cellulose) | Number of times sequence was found, Round 4 ([2]; Cellulose) | Number of times sequence was found, Round 5 ([2]; Cellulose) | Effect on PSMA enzymatic activity [3] | Number of times sequence was found, Round 5 ([2]; asterisk: cross-selected, agarose pool selected on cellulose (final resin)) | Compound
1 | 0 | – | – | – | – | – | – | – | – | CERNTYRFC [SEQ ID NO:33]
2 | 12 | – | – | – | – | – | – | – | – | CLAAPTGKC [SEQ ID NO:30]
3 | – | 1 | 0/0 | 0/0 | 0 | 0/0 | 0/0 | – | – | CFPQSSDRC [SEQ ID NO:24]
4 | – | 0 | 0/0 | 0/0 | 1 | 0/0 | 0/0 | – | – | CTSNNSAIC [SEQ ID NO:27]
5 | 7 | – | – | – | – | – | – | – | – | CTYNPSRWC [SEQ ID NO:29]
6 | – | 1 | 0/0 | 0/0 | 0 | 0/0 | 0/0 | – | – | CTNSNMHHC [SEQ ID NO:22]
7 | 0 | – | – | – | – | – | – | – | – | CKSGEVNYC [SEQ ID NO:34]
8 | 1 | – | – | – | – | – | – | – | – | CNKAALGTC [SEQ ID NO:31]
9 | – | 0 | 0/0 | 0/0 | 1 | 0/0 | 0/0 | – | – | CLSSNSSLC [SEQ ID NO:28]
10 | 0 | – | – | – | – | – | – | – | – | CGSAARNWC [SEQ ID NO:32]
11 | 0 | – | – | – | – | – | – | – | – | CTNPNMHHC [SEQ ID NO:35]
12 | 1 | – | – | – | – | – | – | – | – | CPQPASRQC [SEQ ID NO:36]
13 | – | 1 | 0/0 | 0/0 | 0 | 0/0 | 0/0 | – | – | CHTTTDVYC [SEQ ID NO:25]

The remaining lines, values behind:

Row | Compound | Number of times sequence was found, Round 1 xPSM [1] | Number of times sequence was found, Round 3 ([2]; Agarose) | Number of times sequence was found, Round 4 ([2]; Agarose) | Number of times sequence was found, Round 5 ([2]; Agarose) | Number of times sequence was found, Round 3 ([2]; Cellulose) | Number of times sequence was found, Round 4 ([2]; Cellulose) | Number of times sequence was found, Round 5 ([2]; Cellulose) | Effect on PSMA enzymatic activity [3] | Number of times sequence was found, Round 5 ([2]; asterisk: cross-selected, agarose pool selected on cellulose (final resin))
14 | CTLVPHTRC [SEQ ID NO:3] | – | 0/0 | 13/13 | 0 | 0/0 | 13/13 | 2 | enhanced | –
15 | CSHNDTRHC [SEQ ID NO:4] | – | 0/0 | 0/0 | 0 | 0/0 | 0/0 | 1 | – | –
16 | CQKHHNYLC [SEQ ID NO:1] | – | 0/0 | 0/0 | 0 | 0/0 | 0/0 | – | enhanced | 12
17 | CLKSHSHQC [SEQ ID NO:15] | – | 0/0 | 0 | 0/0 | 0/0 | 1 | 0/0 | – | –
18 | CAPNKYKHC [SEQ ID NO:11] | – | 0/0 | 1 | 0/0 | 0/0 | 0 | 0/0 | – | –
19 | CHKFQSKMC [SEQ ID NO:17] | – | 0/0 | 0 | 0/0 | 0/0 | 1 | 0/0 | – | –
20 | N[C@@H](Cn1oc(=O)[nH]c1=O)C(=O)O [quisqualic acid, reference compound] | – | – | – | – | – | – | – | inhibited | –
21 | CKPSMMSYC [SEQ ID NO:8] | – | 0/0 | 0/0 | 0 | 0/0 | 0/0 | 1 | – | –
22 | CGLPTRTAC [SEQ ID NO:16] | – | 0/0 | 0 | 0/0 | 0/0 | 1 | 0/0 | – | –
23 | CLSTTISYC [SEQ ID NO:21] | – | 0/0 | 0 | 0/0 | 0/0 | 1 | 0/0 | – | –
